Assay results reported in patent US20160185837A1 (AstraZeneca / MedImmune, published 2016).

T1: human GIP receptor (human, UniProt P48546 22-466)
T1 sequence (looked up): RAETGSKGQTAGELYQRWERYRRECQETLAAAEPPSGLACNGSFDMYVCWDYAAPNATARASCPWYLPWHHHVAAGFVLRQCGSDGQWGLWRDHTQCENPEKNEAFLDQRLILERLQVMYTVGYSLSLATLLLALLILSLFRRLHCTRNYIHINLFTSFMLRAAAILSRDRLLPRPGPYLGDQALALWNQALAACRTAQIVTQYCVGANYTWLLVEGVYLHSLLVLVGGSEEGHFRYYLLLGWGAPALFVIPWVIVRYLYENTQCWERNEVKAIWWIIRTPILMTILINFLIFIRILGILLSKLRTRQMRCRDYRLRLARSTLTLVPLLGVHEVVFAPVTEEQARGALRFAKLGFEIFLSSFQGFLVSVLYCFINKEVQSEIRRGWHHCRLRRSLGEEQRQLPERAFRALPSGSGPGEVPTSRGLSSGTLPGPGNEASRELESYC

T2: mouse GLP-1 receptor (mouse, UniProt O35659 22-463)
T2 sequence (looked up): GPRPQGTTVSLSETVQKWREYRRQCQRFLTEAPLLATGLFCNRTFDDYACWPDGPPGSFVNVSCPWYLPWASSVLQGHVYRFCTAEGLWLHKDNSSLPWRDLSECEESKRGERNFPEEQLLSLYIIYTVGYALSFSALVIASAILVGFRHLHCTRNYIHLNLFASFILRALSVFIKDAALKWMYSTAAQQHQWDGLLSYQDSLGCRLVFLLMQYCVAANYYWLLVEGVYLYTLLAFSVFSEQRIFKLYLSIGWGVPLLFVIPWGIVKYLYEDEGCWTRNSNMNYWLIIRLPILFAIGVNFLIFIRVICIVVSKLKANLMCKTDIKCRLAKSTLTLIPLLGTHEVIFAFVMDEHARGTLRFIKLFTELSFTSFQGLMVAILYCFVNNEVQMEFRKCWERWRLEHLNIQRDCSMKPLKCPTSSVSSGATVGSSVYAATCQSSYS

T3: mouse GIP receptor (mouse, UniProt Q0P543 19-460)
T3 sequence (looked up): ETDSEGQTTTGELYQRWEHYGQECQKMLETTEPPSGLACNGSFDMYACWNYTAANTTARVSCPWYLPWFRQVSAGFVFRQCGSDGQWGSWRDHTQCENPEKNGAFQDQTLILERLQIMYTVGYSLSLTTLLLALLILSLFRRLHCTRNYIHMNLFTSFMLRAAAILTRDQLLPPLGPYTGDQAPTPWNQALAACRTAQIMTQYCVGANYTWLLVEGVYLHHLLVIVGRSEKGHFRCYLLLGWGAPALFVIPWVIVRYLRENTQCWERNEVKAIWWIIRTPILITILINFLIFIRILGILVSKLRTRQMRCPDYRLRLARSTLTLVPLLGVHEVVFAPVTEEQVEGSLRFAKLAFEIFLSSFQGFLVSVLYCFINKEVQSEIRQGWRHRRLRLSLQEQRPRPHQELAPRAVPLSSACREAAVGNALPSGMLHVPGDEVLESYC

T4: rat GLP-1 receptor (rat, UniProt P32301 22-463)
T4 sequence (looked up): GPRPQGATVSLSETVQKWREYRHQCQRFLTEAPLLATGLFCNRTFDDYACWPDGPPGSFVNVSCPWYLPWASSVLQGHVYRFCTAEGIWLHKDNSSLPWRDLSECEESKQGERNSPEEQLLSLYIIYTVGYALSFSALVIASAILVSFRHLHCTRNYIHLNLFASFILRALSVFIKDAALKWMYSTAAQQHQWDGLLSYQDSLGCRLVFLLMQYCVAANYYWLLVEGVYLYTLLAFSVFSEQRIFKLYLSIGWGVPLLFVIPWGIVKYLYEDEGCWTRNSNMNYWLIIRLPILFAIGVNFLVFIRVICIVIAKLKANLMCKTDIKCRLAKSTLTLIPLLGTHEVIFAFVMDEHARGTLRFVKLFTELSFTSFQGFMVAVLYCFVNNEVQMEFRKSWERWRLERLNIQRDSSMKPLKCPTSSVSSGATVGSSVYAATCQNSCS

T5: rat GIP receptor (rat, UniProt P43219 19-455)
T5 sequence (looked up): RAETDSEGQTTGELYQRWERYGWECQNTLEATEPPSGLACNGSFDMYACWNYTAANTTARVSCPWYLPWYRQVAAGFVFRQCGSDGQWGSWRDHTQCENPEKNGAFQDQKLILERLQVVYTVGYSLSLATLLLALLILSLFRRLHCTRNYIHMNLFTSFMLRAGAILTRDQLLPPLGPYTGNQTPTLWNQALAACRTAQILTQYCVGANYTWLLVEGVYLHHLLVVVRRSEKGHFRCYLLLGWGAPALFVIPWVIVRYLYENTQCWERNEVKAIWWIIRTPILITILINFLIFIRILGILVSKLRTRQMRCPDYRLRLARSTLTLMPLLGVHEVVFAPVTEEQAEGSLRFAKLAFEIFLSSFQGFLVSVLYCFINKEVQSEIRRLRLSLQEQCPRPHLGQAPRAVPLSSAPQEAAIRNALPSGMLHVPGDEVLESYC


What was measured:
Assay in all cases: cell-based or functional assay
human GLP-1 receptor = human GLP-1 receptor (human, UniProt P43220 24-463)
human glucagon receptor = human glucagon receptor (human, UniProt P47871 26-477)
human GIP receptor = target: T1, human GIP receptor
mouse GLP-1 receptor = target: T2, mouse GLP-1 receptor
mouse GIP receptor = target: T3, mouse GIP receptor
rat GLP-1 receptor = target: T4, rat GLP-1 receptor
rat GIP receptor = target: T5, rat GIP receptor

| Binder | cAMP EC50 (human GLP-1 receptor) [pM] | cAMP EC50 (human glucagon receptor) [nM] | cAMP EC50 (human GIP receptor) [pM] | cAMP EC50 (mouse GLP-1 receptor) [nM] | cAMP EC50 (mouse GIP receptor) [nM] | cAMP EC50 (rat GLP-1 receptor) [pM] | cAMP EC50 (rat GIP receptor) [pM] | cAMP EC50, Batch 2 (human GLP-1 receptor) [pM] | cAMP EC50, Batch 2 (human glucagon receptor) [nM] | cAMP EC50, Batch 2 (human GIP receptor) [pM] | cAMP EC50, Batch 2 (mouse GLP-1 receptor) [nM] | cAMP EC50, Batch 2 (mouse GIP receptor) [nM] | cAMP EC50, Batch 2 (rat GLP-1 receptor) [pM] | cAMP EC50, Batch 2 (rat GIP receptor) [pM] | cAMP EC50, hGIPr (C3) line (human GIP receptor) [nM] |
| --- | --- | --- | --- | --- | --- | --- | --- | --- | --- | --- | --- | --- | --- | --- | --- |
| IP327 (Fc fusion) YSEGTFTSDYSKLLEEEAVRLFIEWLLAGGGGGGGSGGGGSGGGGSGGGGSGGGGSGGGGSA | 250 | 10 | 16 | 0.7 | 1.2 | 32 | 28 |  |  |  |  |  |  |  |  |
| IP328 (Fc fusion) YSEGTFTSDYSKLLEEEAVRLFIEWLLAGGGGGGGSGGGGSGGGGSGGGGSGGGGSGGGGSGGGGSGGGGSA | 1200 | 43 | 85 | 3.9 | 5.4 | 210 | 170 | 330 | 13 | 33 | 1.3 | 2.2 | 120 | 92 |  |
| IP354 (Fc fusion) YSEGMHTSDFSKLLEEEAVRLFIEWLLAGGGGGGSGGGGSGGGGSGGGGSATHTCPPC | 1400 | > 7370 | 24 | 13 | 270 | 3600 | 740 |  |  |  |  |  |  |  |  |
| IP355 (Fc fusion) YSEGTHTSLFSKLLEEEAVRLFIEWLLAGGGGGGSGGGGSGGGGSGGGGSATHTCPPC | 8800 | > 527 | 170 | 220 | 17 | 20000 | 500 |  |  |  |  |  |  |  |  |
| IP357 (Fc fusion) YSEGTFTSDFSKLLEEEAVRLFIEFLLAGGGGGGSGGGGSGGGGSGGGGSATHTCPPC | 270 | 110 | 14 | 1.1 | 16 | 130 | 67 |  |  |  |  |  |  |  |  |
| IP358 (Fc fusion) YSEGTFTSDFSKLLEEEAVRLFIEWLLAGGGGGGSGGGGSGGGGSGGGGSATHTCPPC | 240 | 140 | 9.4 | 1.1 | 12 | 150 | 49 |  |  |  |  |  |  |  |  |
| IP360 (Fc fusion) YSEGTFTSDYRILLEEEAVRLFIEWLLAGGGGGGSGGGGSGGGGSGGGGSATHTCPPC | 310 | 63 | 16 | 1.2 | 0.36 | 150 | 33 |  |  |  |  |  |  |  | 2.5 |
| IP361 (Fc fusion) YSEGTFTSDYRILKEEEAVRLFIEWLLAGGGGGGSGGGGSGGGGSGGGGSATHTCPPC | 3400 | > 6200 | 82 | 170 | 0.19 | 18000 | 38 |  |  |  |  |  |  |  |  |
| IP362 (Fc fusion) YSEGTFTSDYMMLKEEEAVRLFIEWLLAGGGGGGSGGGGSGGGGSGGGGSATHTCPPC | 1700 | > 4960 | 61 | 11 | 1.1 | 1100 | 83 |  |  |  |  |  |  |  |  |
| IP363 (Fc fusion) YSEGTFTSDYRMLKEEEAVRLFIEWLLAGGGGGGSGGGGSGGGGSGGGGSATHTCPPC | 980 | 560 | 56 | 11 | 0.31 | 1400 | 45 |  |  |  |  |  |  |  |  |
| IP370 (Fc fusion) YSEGTFTSLYSKLKEEEAVRLFIEWLLAGGGGGGSGGGGSGGGGSGGGGSATHTCPPC | 620 | > 9490 | 190 | 13 | 0.48 | 350 | 130 |  |  |  |  |  |  |  |  |
| IP371 (Fc fusion) YSEGMHTSDLSKLLEEEAVRLFIEWLLAGGGGGGGSGGGGSGGGGSGGGGSACPPC | 480 | > 6560 | 11 | 8.5 | 280 | 1100 | 210 |  |  |  |  |  |  |  |  |
| IP372 (Fc fusion) YSEGTFTSDYSIYLDEEAVRLFIEWLLAGGGGGGGSGGGGSGGGGSGGGGSACPPC | 710 | > 3880 | 50 | 33 | 450 | 2900 | 27000 |  |  |  |  |  |  |  |  |
| IP374 (Fc fusion) YSEGTFTSLYSKLLEEEAVRLFIEWLLAGGGGGGSGGGGSGGGGSGGGGSATHTCPPC | 1400 | > 2090 | 200 | 19 | 1.9 | 890 | 410 |  |  |  |  |  |  |  |  |
| IP379 (Fc fusion) YSEGTHTSDFSKLLEEEAVRLFIEWLLAGGGGGGSGGGGSGGGGSGGGGSATHTCPPC | 840 | > 13200 | 3.8 | 44 | 150 | 1500 | 410 |  |  |  |  |  |  |  |  |
| IP382 (Fc fusion) YSEGTFTSLYSKLLEEEAVRLFIEYLLAGGGGGGSGGGGSGGGGSGGGGSATHTCPPC | 1500 | 120 | 190 | 16 | 6.5 | 680 | 920 |  |  |  |  |  |  |  |  |
